In patent publication US20190264194A1:

Assays:
[1] = molecular target: OmpA with T7⋅tag epitope inserted into loop 1 (Escherichia coli) (UniProt P0A910); assay: flow cytometry of whole cells, biotinylated mAb then streptavidin-phycoerythrin
[2] = molecular target: OmpA with T7⋅tag epitope inserted into loop 4 (Escherichia coli) (UniProt P0A910); assay: as above

fold fluorescence above background control cells [1]: 300 fold | fold fluorescence above background cellular autofluorescence [2]: 2 fold
Substance: anti-T7⋅tag monoclonal antibody
